Reference: the supplement of paper PMC10567573

B1: ADD1 (parent)
chain: FASDGDSGTCSPLRHSFQKQQREK

Variants of: B1
Assay: protein stability index of a GFP-peptide fusion (GPS, HEK-293T) (PSI 1-6); higher = more stable
Conditions: c terminus: a fixed tail appended
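Note: lentivirally expressed fusions sorted by FACS into six bins by GFP to DsRed ratio, PSI derived from sequencing read proportions per bin multiplied by bin number.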

| Variant | protein stability index |
| --- | --- |
| Q20D | 4.23 |
| Q20R | 4.05 |
| Q20C | 2.97 |
| Q20W | 3.22 |
| Q20K | 3.96 |
| Q20S | 4.55 |
| Q20H | 3.71 |
| Q20M | 3.07 |
| Q20A | 4.18 |
| Q20G | 3.98 |
| Q20Y | 2.65 |
| Q20N | 3.65 |
| Q20T | 4.07 |
| Q20P | 3.65 |
| Q20E | 4.16 |
| Q20L | 2.69 |
| Q20I | 3.2 |
| Q20V | 3.71 |
| Q20F | 2.8 |
| H15C | 2.62 |
| H15I | 3.5 |
| H15T | 4.16 |
| H15M | 2.88 |
| H15P | 4.01 |

| Variant | protein stability index |
| --- | --- |
| H15A | 3.83 |
| H15R | 3.45 |
| H15E | 4.34 |
| H15Q | 3.44 |
| H15V | 2.93 |
| H15G | 3.29 |
| H15N | 4.41 |
| H15K | 4.1 |
| H15Y | 3.44 |
| H15S | 4.22 |
| H15W | 2.39 |
| H15F | 3.01 |
| H15L | 3.21 |
| H15D | 5.02 |
| F17T | 3.46 |
| F17S | 4.47 |
| F17I | 3.87 |
| F17K | 3.95 |
| F17L | 4.71 |
| F17M | 3.95 |
| F17G | 3.44 |
| F17E | 4.34 |
| F17D | 4.62 |
| F17N | 4.42 |

| Variant | protein stability index |
| --- | --- |
| F17Q | 4.52 |
| F17A | 3.68 |
| F17R | 4.1 |
| F17W | 3.72 |
| F17V | 3.71 |
| F17Y | 3.79 |
| F17P | 4.82 |
| F17C | 4.17 |
| F17H | 3.65 |
| G5E | 4.74 |
| G5A | 4.17 |
| G5Y | 3.42 |
| G5T | 4.37 |
| G5D | 4.29 |
| G5F | 4.01 |
| G5P | 3.67 |
| G5W | 1.56 |
| G5L | 3.83 |
| G5H | 3.43 |
| G5Q | 4.66 |
| G5C | 3.57 |
| G5N | 4.29 |
| G5V | 3.94 |
| G5R | 3.35 |

| Variant | protein stability index |
| --- | --- |
| G5S | 4.17 |
| G5K | 3.76 |
| G5I | 3.68 |
| G5M | 3.62 |
| G8R | 3.98 |
| G8A | 2.82 |
| G8P | 4.47 |
| G8Y | 2.5 |
| G8T | 3.75 |
| G8N | 3.5 |
| G8I | 3.15 |
| G8M | 2.96 |
| G8D | 4.29 |
| G8Q | 3.7 |
| G8F | 1.44 |
| G8K | 3.57 |
| G8L | 3.2 |
| G8H | 3.86 |
| G8V | 3.81 |
| G8E | 3.92 |
| G8C | 3.1 |
| G8S | 3.58 |
| Q18Y | 3.31 |
| Q18E | 3.88 |

| Variant | protein stability index |
| --- | --- |
| Q18N | 4 |
| Q18R | 3.81 |
| Q18G | 3.33 |
| Q18H | 3.13 |
| Q18V | 2.97 |
| Q18C | 2.62 |
| Q18T | 3.4 |
| Q18P | 3.84 |
| Q18A | 2.75 |
| Q18F | 3.16 |
| Q18L | 3.73 |
| Q18I | 3.33 |
| Q18K | 3.31 |
| Q18S | 3.52 |
| Q18D | 3.83 |
| Q18M | 3.13 |
| Q18W | 1.62 |
| D6A | 2.41 |
| D6F | 1.97 |
| D6G | 3.31 |
| D6N | 3.18 |
| D6T | 2.9 |
| D6R | 3.44 |
| D6K | 2.8 |

| Variant | protein stability index |
| --- | --- |
| D6C | 3.01 |
| D6Q | 3.17 |
| D6M | 2.27 |
| D6I | 1.92 |
| D6E | 3.98 |
| D6V | 3.13 |
| D6H | 2.29 |
| D6S | 3.12 |
| D6W | 3.8 |
| D6L | 2.6 |
| D6Y | 1.7 |
| D6P | 3.34 |
| P12G | 4.73 |
| P12H | 3.91 |
| P12F | 3.02 |
| P12S | 3.67 |
| P12C | 2.73 |
| P12R | 4.6 |
| P12E | 3.93 |
| P12D | 4.34 |
| P12T | 4.59 |
| P12Y | 3.86 |
| P12I | 3.37 |
| P12Q | 4.79 |

| Variant | protein stability index |
| --- | --- |
| P12N | 4.95 |
| P12L | 3.88 |
| P12V | 3.89 |
| P12A | 4.76 |
| P12K | 3.3 |
| P12M | 4.39 |
| L13Y | 2.13 |
| L13M | 4.02 |
| L13I | 3.97 |
| L13E | 4.89 |
| L13R | 5.28 |
| L13Q | 4.95 |
| L13K | 4.57 |
| L13C | 4.25 |
| L13A | 4.98 |
| L13T | 4.98 |
| L13D | 4.72 |
| L13G | 4.22 |
| L13N | 4.26 |
| L13V | 5 |
| L13P | 4.1 |
| L13H | 5.09 |
| L13S | 4.55 |
| L13F | 2.39 |

| Variant | protein stability index |
| --- | --- |
| S11P | 4.62 |
| S11Y | 3.92 |
| S11F | 3.17 |
| S11R | 4.39 |
| S11A | 3.9 |
| S11C | 3.16 |
| S11W | 2.17 |
| S11M | 3.75 |
| S11H | 2.62 |
| S11Q | 4.25 |
| S11D | 4.04 |
| S11L | 3.94 |
| S11N | 1.87 |
| S11V | 4.58 |
| S11T | 4.53 |
| S11K | 4.45 |
| S11E | 4.5 |
| S11I | 3.79 |
| S11G | 4.35 |
| A2V | 3.07 |
| A2W | 4.27 |
| A2T | 4.39 |
| A2S | 4.47 |
| A2Y | 4.33 |

| Variant | protein stability index |
| --- | --- |
| S7L | 2.11 |
| S7I | 1.49 |
| S7T | 3.19 |
| S7W | 2.06 |
| S7Q | 3.76 |
| S7K | 3.69 |
| S7N | 4.14 |
| S7A | 3.82 |
| S7M | 3.14 |
| S7G | 3.46 |
| S7F | 2.72 |
| S7P | 3.85 |
| S7E | 4.26 |
| S7Y | 3.04 |
| S7D | 4.18 |
| S7R | 4.01 |
| S7C | 2.96 |
| S7V | 1.49 |
| S7H | 3.42 |
| S16D | 4.82 |
| S16W | 2.75 |
| S16Y | 3.88 |
| S16I | 1.99 |
| S16K | 4.59 |

| Variant | protein stability index |
| --- | --- |
| S16V | 2.31 |
| S16P | 2.28 |
| S16A | 3.52 |
| S16M | 2.46 |
| S16L | 3.17 |
| S16Q | 4.27 |
| S16H | 4.27 |
| S16F | 2.84 |
| S16G | 3.54 |
| S16C | 2.24 |
| S16N | 4.35 |
| S16R | 3.89 |
| K19S | 3.23 |
| K19E | 3.71 |
| K19A | 2.85 |
| K19Q | 4.53 |
| K19R | 3.19 |
| K19H | 4.43 |
| K19Y | 3.62 |
| K19G | 3.54 |
| K19I | 3.17 |
| K19N | 3.08 |
| K19C | 1.66 |
| K19L | 2.76 |

| Variant | protein stability index |
| --- | --- |
| K19P | 3.09 |
| K19F | 3.01 |
| K19W | 1.8 |
| K19T | 3.11 |
| K19M | 3.61 |
| K19D | 3.61 |
| T9P | 4.35 |
| T9V | 3.31 |
| T9E | 4.79 |
| T9N | 4.13 |
| T9R | 3.33 |
| T9L | 3.58 |
| T9H | 3.45 |
| T9Q | 4.04 |
| T9F | 1.64 |
| T9C | 3.52 |
| T9I | 2.49 |
| T9M | 2.4 |
| T9Y | 2.16 |
| T9D | 4.36 |
| T9W | 3.71 |
| T9S | 3.82 |
| T9A | 4.16 |
| C10F | 1.87 |

| Variant | protein stability index |
| --- | --- |
| C10N | 5.17 |
| C10V | 3.85 |
| C10Y | 1.63 |
| C10S | 4.78 |
| C10E | 4.66 |
| C10T | 4.44 |
| C10I | 4.24 |
| C10P | 3.65 |
| C10R | 4.07 |
| C10Q | 4.13 |
| C10M | 3.75 |
| C10H | 4.01 |
| C10K | 4.17 |
| C10A | 4.67 |
| C10D | 4.68 |
| C10G | 4.49 |
| C10L | 3.85 |
| D4A | 2.14 |
| D4E | 4.37 |
| D4L | 3.48 |
| D4Q | 3.14 |
| D4N | 2.99 |
| D4G | 2.07 |
| D4H | 3.08 |

| Variant | protein stability index |
| --- | --- |
| D4V | 2.44 |
| D4I | 2.54 |
| D4T | 2.69 |
| D4C | 2.72 |
| D4K | 2.51 |
| D4Y | 2.66 |
| D4P | 4.26 |
| D4M | 2.54 |
| D4F | 2.41 |
| D4R | 2.81 |
| S3K | 3.75 |
| S3N | 3.72 |
| S3W | 2.72 |
| S3G | 3.98 |
| S3I | 3.88 |
| S3V | 4.09 |
| S3P | 2.37 |
| S3T | 3.99 |
| S3Q | 4.5 |
| S3R | 3.25 |
| S3F | 1.92 |
| S3C | 3.02 |
| S3Y | 1.93 |
| S3A | 3.58 |

| Variant | protein stability index |
| --- | --- |
| S3M | 4.33 |
| S3D | 4.03 |
| S3L | 3.51 |
| S3H | 4.05 |
| R14G | 4.11 |
| R14N | 4.46 |
| R14S | 4.45 |
| R14I | 4.52 |
| R14P | 5.13 |
| R14Y | 1.94 |
| R14E | 4.64 |
| R14V | 3.97 |
| R14T | 4.8 |
| R14W | 4.02 |
| R14Q | 3.6 |
| R14C | 3.52 |
| R14K | 4.55 |
| R14H | 3.98 |
| R14L | 3.66 |
| R14D | 4.75 |
| R14M | 4.27 |
| R14A | 4.18 |
